Results on 4 substances are retold here after paper doi:10.1101/557132.

The target of experiment [1] is human SNAP_GLP1R on CHO-K1 cells (human) (UniProt P43220).
The target of experiment [2] is SNAP_GLP1R on YFP-AD293 cells (human) (UniProt P43220).
For experiment [3] the target is unchanged. Kind of experiment: fluorescent ligand labelling of cells.

Sequence of human SNAP_GLP1R on CHO-K1 cells (human) (P43220 24-463): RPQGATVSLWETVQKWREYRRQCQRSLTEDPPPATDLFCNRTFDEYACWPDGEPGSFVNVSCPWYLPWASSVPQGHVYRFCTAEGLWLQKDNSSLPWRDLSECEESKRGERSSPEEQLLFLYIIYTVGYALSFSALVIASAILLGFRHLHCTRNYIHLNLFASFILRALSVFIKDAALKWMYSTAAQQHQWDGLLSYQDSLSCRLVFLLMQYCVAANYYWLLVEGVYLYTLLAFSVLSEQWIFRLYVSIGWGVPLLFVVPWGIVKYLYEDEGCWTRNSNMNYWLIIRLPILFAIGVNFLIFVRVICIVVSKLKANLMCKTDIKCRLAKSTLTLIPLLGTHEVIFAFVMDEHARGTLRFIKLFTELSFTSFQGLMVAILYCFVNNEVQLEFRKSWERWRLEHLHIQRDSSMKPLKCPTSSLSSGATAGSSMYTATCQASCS
Sequence of SNAP_GLP1R on YFP-AD293 cells (human) (P43220 24-463): as above

In the case of Exendin4(9-39) (peptide), the block of GLP-1-induced cAMP production through GLP1R (cAMP-Glo) in experiment [1] was found to be 38.4 nM. For the substance LUXendin555 (peptide), in experiment [2], the cAMP production (cAMP-Glo) is 130 nM and the cAMP production (cAMP-Glo) with the positive allosteric modulator BETP worked out at 28.4 nM. In experiment [3], LUXendin645 (peptide) had a concentration at maximum labeling of 100 nM. In experiment [1], this substance yielded a block of GLP-1-induced cAMP production through GLP1R (cAMP-Glo) of 73.1 nM and a cAMP production (cAMP-Glo) with the positive allosteric modulator BETP of 9.3 nM. As to S39C-Exendin4(9-39) (peptide), the block of GLP-1-induced cAMP production through GLP1R (cAMP-Glo) in experiment [1] was determined as 34.8 nM.
